Data on 1 substance can be found in patent US20060020118A1.

For this assay, the target named is human IFNAR1 (first human interferon-alpha receptor), membrane form on cells (human) (UniProt P17181). Nature of the assay: flow cytometry, fluoresceinated control IgG on U266 cells, no soluble hIFNAR1.
Sequence of UniProt P17181 (P17181 28-557): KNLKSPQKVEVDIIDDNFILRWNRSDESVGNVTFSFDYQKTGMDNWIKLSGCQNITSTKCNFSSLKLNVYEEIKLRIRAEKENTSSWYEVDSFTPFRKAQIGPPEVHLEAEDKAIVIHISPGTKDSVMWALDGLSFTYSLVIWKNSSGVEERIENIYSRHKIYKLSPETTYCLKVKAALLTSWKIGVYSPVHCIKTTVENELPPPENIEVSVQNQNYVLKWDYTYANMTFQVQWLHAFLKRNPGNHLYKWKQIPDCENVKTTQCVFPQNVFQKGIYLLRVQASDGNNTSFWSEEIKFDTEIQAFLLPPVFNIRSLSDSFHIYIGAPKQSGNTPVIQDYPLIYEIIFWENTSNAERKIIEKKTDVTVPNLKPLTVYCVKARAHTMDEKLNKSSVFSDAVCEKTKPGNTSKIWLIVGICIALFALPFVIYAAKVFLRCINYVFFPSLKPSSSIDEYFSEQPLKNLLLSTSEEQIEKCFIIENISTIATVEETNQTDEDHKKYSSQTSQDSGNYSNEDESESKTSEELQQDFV

The substance fluoresceinated control IgG (antibody) registered a Mean Fluorescence Intensity of 2.99.
